Here are results for two substances from patent publication US20020193568.

Series [1] addresses LacI Pro320Ala Pro320Ala (Escherichia coli) (UniProt P03023). The conditions noted are these: wild-type inducer responsivity.
Series [2] addresses lac repressor (LacI) wild-type (Escherichia coli) (UniProt P03023). The conditions noted are these: no inducer; assay method not stated; cited from earlier work.
Series [3] deals with LacI Gln60Gly (Escherichia coli) (UniProt P03023).

pKd: −log10 of the molar value. Where two headings read alike, the source gives them in different places.

In the case of lac operator DNA (LacO), the binding signal (fold higher affinity than wild-type) in series [1] came to 10.

As to lac operator O1 (LacO), the pKd – broadly, −log10 of the Kd, conventionally taken in molar units – is 10.92 in series [2]; under 7.00 in series [3] (1 mM IPTG, described as wild-type affinity under these conditions); 11.40 in series [3] (no inducer, assay method not stated, refers to Falcon and Matthews 1999, cited from earlier work).
